# Measurements as given in the supplement of paper PMC10567573.
# ± gives the standard deviation.
# Assay: protein stability index of a GFP-peptide fusion (GPS, HEK-293T) (PSI 1-6); higher = more stable
# Conditions: c terminus: a fixed tail appended
# 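Further: 24-mer peptide tiles fused after GFP, lentivirally expressed, FACS-sorted into six equal bins by GFP/DsRed ratio, decoded by Illumina sequencing, PSI is the read-weighted mean bin number.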
Sequence,protein stability index (treatment: DMSO),"protein stability index (treatment: MLN4924 1 uM, 8 h)"
LAAALAQHSVPLQLELRAGAERLD [TRADD],2.97 ± 0.36,2.94 ± 0.12
LAALCLAGPPAPARACQLPSEWRP [CCDC3],2.96 ± 0.2,2.92 ± 0.058
LAEVAPVVTTEHILVSVAAGVSLS [PYCR3],2.22 ± 0.27,2.44 ± 0.21
LAHLAPLFDNPKLDKELRAMLREK [INTS3],2.6 ± 0.41,2.65 ± 0.5
LARADLEMQIENLKEELAYLKKNH [KRT17],3.12 ± 0.35,3.21 ± 0.45
LAVSNMGARSKGQCPEPPIVVHCS [PTPN9],3 ± 0.33,2.95 ± 0.28
LDKKVEKVTISNRLVSSPCCIVTS [HSP90AB1],3.28 ± 0.34,2.98 ± 0.27
LDNNASASGNATQTESGSEEVSST [C10orf62],5.7 ± 0.2,5.64 ± 0.15
LDSQTEIYQYVQNSMAPHPARDYV [DLC1],2.99 ± 0.42,3.09 ± 0.25
LEAEKLVMFQRRYYKPGLLMMCFI [SCD],3.26 ± 0.91,2.8 ± 0.44
LEASVQDDAGTSGGPSSPPSDPPA [C2CD2L],5.53 ± 0.31,5.66 ± 0.12
LEDIYVMPEYRGQGIGSKIIKKVA [SAT2],3.45 ± 0.37,3.79 ± 0.27
LEERRVKEVVKKHSQFIGYPITLY [HSP90AB1],2.48 ± 0.068,–
LELGHWLYQTELVENECYQVFLDR [TOR1AIP2],2.38 ± 0.038,2.26 ± 0.32
LELKFVSSLRRQFEFSVDSFQIVL [TENT5D],3.41 ± 0.5,2.91 ± 0.23
LENDTISKQLTLEQLRREKIDLEN [CCDC6],4.96 ± 0.27,4.88 ± 0.23
LEQFLSILPKELQGWVREHCPESG [ZSCAN9],2.5 ± 0.15,2.71 ± 0.29
LERASATLQDLVFDECGITDDQLL [PRAME],4.65 ± 0.36,4.71 ± 0.35
LERYVASLMPLQKSISPWKSPPQL [DENND6A],2.16 ± 0.28,2.21 ± 0.25
LESEGKNSKKEEPQELLQSQDFVG [ATE1],5.73 ± 0.27,5.54 ± 0.14
LFFTALMITVPIGLYFTTKSYIFE [VMA21],2.73 ± 0.46,2.58 ± 0.055
LFGGEFEDSVFEERPERRSGPPAS [C8orf76],4.75 ± 0.18,4.69 ± 0.2
LFRELWRYHFATGVWHQMGTDGYM [KLHDC10],3 ± 0.66,2.8 ± 0.47

Sequence,protein stability index (treatment: DMSO),"protein stability index (treatment: MLN4924 1 uM, 8 h)"
LFRWPDLQHAVELKPLCGCHSFAA [SMAD6],2.27 ± 0.26,2.13 ± 0.49
LGDALAGPPRAPGRSGWPAGGAPG [HES6],3.88 ± 0.23,3.94 ± 0.44
LGFAYAKEDKIMLDDRKNEEDGGA [MIA2],4.96 ± 0.13,5.18 ± 0.2
LGFGPTYVVLAYTLPPASRFIIIF [SOAT1],3.09 ± 0.14,3.03 ± 0.77
LGFKANIMNEKCVVENAEKILGYL [SLC6A17],2.43 ± 0.23,2.26 ± 0.14
LGSDDEEQEDPADYCKGGYHPVKI [SRPK2],4.81 ± 0.31,4.67 ± 0.31
LGTDPTHVMGLYPDLLPTDYRKQL [VPS39],3.34 ± 0.36,3.42 ± 0.41
LHAVADIHCENCKTTLGWKYEQAF [YPEL3],2.38 ± 0.49,2.14 ± 0.46
LHFIATNYLIFSQKPEFQDLSVEE [RHOBTB3],2.5 ± 0.77,2.15 ± 0.38
LHRILHHKHVVQFYHYFEDKENIY [PLK2],2.58 ± 0.51,2.32 ± 0.38
LHSAIYAARPDVKCVVHIHTPAGA [ADD1],2.24 ± 0.22,2.11 ± 0.28
LHVACELARPECLFLLLGHGASPG [ANKRD9],2.53 ± 0.61,2.44 ± 0.45
LIKAGADIELGCSTPLMEAAQEGH [ANKRD17],4.21 ± 0.57,4.14 ± 0.35
LIQRWYRRYVARLEMRRRCTWSIF [PPEF2],2.43 ± 1.3,2.73 ± 0.57
LKIFTEDLPEVESLPRDRVLGFLI [VPS39],2.25 ± 0.49,2.23 ± 0.43
LKNEIQEVEELDNWQPAVPLMHML [SPATS1],2.8 ± 0.45,3.18 ± 0.38
LKPNNLSCDLPEERYRHEIAHDGQ [KLHDC10],4.8 ± 0.2,4.8 ± 0.074
LKQLLTETDVWFSKQRKDFEGMAF [GMCL1],2.7 ± 0.48,2.52 ± 0.19
LKSSGLCESLTYGLPFILRPTSCW [M1AP],2.9 ± 0.31,3.06 ± 0.73
LLDAHILEWHDSLFQILSERQDMY [ZNF511],2.32 ± 0.4,2.17 ± 0.23
LLETDAGPAASEGAEQPPDLHCVL [GADD45A],4.82 ± 0.29,4.78 ± 0.18
LLHGLNLLWRKQLFCDVTLTAQGQ [KLHL14],3.3 ± 0.17,2.88 ± 0.53
